Laboratory results: patent CN114989293A (UNIV CHONGQING MEDICAL; FENG YULIN, dated 2022)

Molecular target: 新冠病毒(SARS-CoV-2) S蛋白受体结合域 RBD (SARS-CoV-2, UniProt P0DTC2 319-541)
Assay: ELISA, antigen coated at 2 μg/mL, 293T supernatant, anti-human IgG-ALP detection

Binder | binding result
单抗18-CQTS083 (antibody, V domains shown) VH: EVQLVESGGGLVQPGGSLRLSCAASGLTVSSNYMSWVRQAPGKGLEWVSLIYSGGSTYYADSVKGRFTISRHNSKNTLYLQMNSLRAEDTAVYYCARDLEERGAMDVWGQGTTVTVSS VL: not shown | binds
单抗17-CQTS082 (antibody, V domains shown) VH: EVQLVQSGAEVKKPGESLKISCKGSGYSFSTYWIGWVRQMPGKGLEWMGIIYPYDSDTRYSPSFQGQVTISADKSISTAYLQWSSLKASDTAIYYCARQESGWSFDYWGQGTLVTVSS VL: DIQMTQSPSSLSASVGDRVTITCRASQNINKYLNWYQQKPGKAPKLLIYVASSLQSGVPSRFSGSGSGTDFTLTISSLQPEDFATYYCQQSYSTPRTFGQGTKVEIK | binds
单抗14-CQTS079 (antibody, V domains shown) VH: EVQLVESGGGLIQPGGSLRLSCAASGFTVSSNYMSWVRQAPGKGLEWVSVIYSGDNTYYADSVKGRFTISRDNSKNTLYLQMNSLRAEDTAVYYCAKMLWLRGWFDPWGQGTLVTVSS VL: NFMLTQPHSVSESPGKTVTISCTRSSGSIASNYVQWYQQRPGSAPTTVIYEDNQRPSGVPDRFSGSIDSSSDSASLTISGLKTEDEADYYCQSYDTSNHWVFGGGTKLTVL | binds
单抗13-CQTS078 (antibody, V domains shown) VH: QVQLVQSGAEVKKPGASVRVSCKASGDTFSSHYIHWVRQAPGQGLEWMGIINPSGGSTSYAQKFQGRVTMTSDTSTSTVYLELSSLRSEDTAVYYCARDQAFIVATLGPDYWGQGILVTVSS VL: QTVVTQEPSFSVSPGGTVTLTCGLSSGSVSTSYYASWYQQTPGQAPRTLIYSTNTRSSGVPDRFSGSILGNKAALTITGAQADDESDYYCVLYMGSGIWVFGGGTKLTVL | binds
单抗12-CQTS077 (antibody, V domains shown) VH: EVQLVESGGGVVQPGGSLRLSCAASGFTFDDYAMNWVRQAPGKGLEWVSLISGDGDSPSYSGSVKGRFTISRDNSKNSLYLQMISLRTEDTALYYCARESPKLTGYFDYWGQGTLVTVSS VL: SYVLTQPPSVSVAPGQTAGITCGGDDIGSKNVHWYQQKPGQAPVLVVYDDHDRPSGIPERFSGSNSGNTATLTISRVEAGDEADYYCQVWDSSSDPYVFGTGTKVTVL | binds
单抗19-CQTS086 (antibody, V domains shown) VH: EVQLVESGGGLVQPGGSLRLSCAASGITVNSNYMSWVRQAPGKGLEWVSVIYNGVTTYYADSVKGRFTISRDISKNTVYLQMNSLRAEDTAVYYCARAGWLRGRFDPWGQGTLVIVSS VL: SYVLTQPPSVSVAPGQTASITCGGSNIGSKNVHWYQQKSGQAPVLVVYDDSDRPSGIPERFSGSNSGNTATLIINRVEAGDEADYYCQVWDSTTDLPHWVFGGGTKLTVL | binds
单抗15-CQTS080 (antibody, V domains shown) VH: QVTLRESGPALVRPTQTLTLTCTFAGFSLRTHGMCVSWIRQPPGKALEWLARIDWDGDKYYSTSLKTRLTISKDTSKDQVVLTMTNMDPVDTATYYCARFLVGGFKAWFDPWGQGTLVTVSS VL: QSVLTQPPSVSAAPGQKVTISCSGSSSNIGNNYVSWYQQLPGIAPELLIYDNNKRPSGIPGRFSGSRSGTSATLDITGLQTGDEADYYCGTWDTSLNVWVFGGGTKLTVL | binds
